Target: GH receptor (on Nb2 cells)
Test: cell-based or functional assay

## commercial recombinant hGH (Somatropin, United States Pharmacopeia) (from UniProt P01241 27-217) (ligand)
  Nb2 cell proliferation, EC50: 166 pM

Source: patent publication US20180127478A1
